From patent publication US20190031754A1 (Scripps Research, published 2019)
Like-named read-outs stand apart in the source and are kept apart here.

B1: ERR2-316 (mAb005) (antibody, human IgG1, V domains shown)
VH: QKQLVESGGRLVTPGGSLTLTCTVSGFSLSKYGVSWVRQAPGSGLEYIGTIGGSGTSYYASWAKSRSTITRNTNLNTVTLKMTSLTAADTATYFCARYFGWNTGFDIWGPGTLVTISS
VL: DPVMTQTPSSVSEPVGGTVTIKCQASQSISNALAWYQQKPGQPPKRLIYKASTPASGVPSRFKGSRSGTEYTLTISGVQREDAATYYCLGFSVVSNDGWAFGAGTNVEIK
notes: Full-length chimeric rabbit/human IgG1, human IgH-gamma1 and IgL-kappa constant regions; C-terminal tags HC: LPETG-Strep, LC: G5SLPETG-Strep; also called mAb0005
B2: XBR2-TOP72 (IgG) (antibody, V domains shown)
VH: QEQLEESGGRLVTPGTPLTLTCTVSGIDLSSNAMSWVRQAPGKGLEYVGFINGGGGVHYASWARGRFTISKTSTTVDLKITSPTTEDTATYFCARAGTTYYTSFNLWGPGTLVTISS
VL: QFVLTQSPSASAALGSSAKLTCTLSSAHKTYTIAWYQQQQGEAPRLLMMLRTDGSYTKGTGVPDRFSGSSSGADRYLIISSVQADDAAGYYCGADYSGGYVFGGGTQLTVTG
notes: also called chimeric rabbit/human IgG1 XBR2-TOP72
B3: IgG1 XBR2-433 (antibody, V domains shown)
VH: QSVKESEGGLFKPTDTLTLTCTVSGFSLSTYGVSWVRQAPGNGLEWIGAIGSSGSANYASWAKDRSTITRNTNLNTVTLKMTSLTAADTATYFCARDGYYSSGWGPYFNIWGPGTLVTISS
VL: SFVLTQPASVQVNLGQTVSLTCTADTLSRSYASWYQQKPGQAPVLLIYRDTSRPSGVPDRFSGSSSGNTATLTISGAQAGDEADYYCATSGGSGSNPQYVFGGGTQLTVTG
B4: ERR2-Top35 (mAb130) (antibody, V domains shown)
VH: QSVKESEGGLFKPMDTLTLTCTVSGFSLNTYGVSWVRQAPGNGLEWIGAVGSSGATNYASWAKSRSTITRNTNENTVTLKMTSLTAADTATYFCARDGYYSSGWGPYFSIWGPGTLVTVSS
VL: SFVLTQPASVQVNLGQTVSLTCTAETLRSSYASWYQQKPGQAPVLLIYRDTSRPSGVPDRFSGSSSGNTATLTISGAQAGDEADYYCATSDGSGSRYYVFGGGTQLTVTG
B5: ERR2-302 (mAb004) (antibody, human IgG1, V domains shown)
VH: QKQLVESGGGLVKPGGSLTLTCTVSGFSLSSYAIGWVRQAPGNGLEWIGIINSYGSTYYASWAKSRSTITRNTNLNTVTLKMTSLTAADTATYFCARSPYGYVSAWGYHRLDLWGQGTLVTISS
VL: SYELTQLPSVSVSLGQTARITCGGASIGSKVVHWYQQKPGLAPGLLIYDDDERPSGVPDRFSGSNSGDTATLTISGAQAGDEAEYYCQLWDGSDVVFGGGTQLTVTG
notes: Full-length chimeric rabbit/human IgG1, human IgH-gamma1 and IgL-lambda constant regions; C-terminal tags HC: LPETG-Strep, LC: G5SLPETG-Strep
B6: chimeric rabbit/human IgG1 XBR2-401 (antibody, V domains shown)
VH: QSVKESEGGLFKPTDTLTLTCTVSGFSLSSYGVTWVRQAPGSGLEWIGYINTAGNTYYASWAKSRSTITRNTNENTVTLKMTSLTAADTATYFCARDWTSLNIWGPGTLVTVSS
VL: DPMLTQTPSSTSTAVGDTVTIKCQASQSISSDLSWYQQKPGQRPKLLIYQASTLASGVPSRFKGSGYGTEYTLTISGVQREDAAIYYCLGGYADASYRTAFGGGTKLEIK
B7: ERR2-308 (mAb037) (antibody, human IgG1, V domains shown)
VH: QEQLEESGGRLVTPGTPLTLTCAVSGFSLSNYAMGWVRQAPGEGLEYIGWISAGGGAYYASWVNGRFTISKTSSTVDLKMTSLTAADTATYFCARGASNGCDLWGPGTLVTVSS
VL: DPMLTQTPSSVSAVVGGTVTIKCQASQSITSWLSWYQQKPGQPPKLLIYGASHLASGVPSRFKGSGYGTEFTLTISGIQREDAATYYCLGGYSNSDIVFGGGTELEIL
notes: Full-length chimeric rabbit/human IgG1, human IgH-gamma1 and IgL-kappa constant regions; C-terminal tags HC: LPETG-Strep, LC: G5SLPETG-Strep
B8: IgG1 XBR2-416 (antibody, V domains shown)
VH: QEQLEESGGRLVTPGTPLTLTCTVSGFSLSSYWMSWVRQAPGKGLEWIGTITPGGNTDYATWAKARFTVSKTSTTVDLKITSPTTEDTATYFCARGIGGAADLWGPGTLVTISS
VL: AQVLTQTPSSTSAAVGGTVTIKCQASQSISSSDLSWYQQKPGQPPKLLIYATSYLASGVPSRFKGSGSGTEYTLTISGVQREDAATYYCLGGYPNTSYRSAFGGGTKVEIK
notes: also called chimeric rabbit/human IgG1 XBR2-416
B9: ERR2-317 (mAb006) (antibody, human IgG1, V domains shown)
VH: QSLEESGGRLVTPGTPLTLTCTASGFSLSSYDMIWVRQAPGKGLEYIGIINAGGNTYYASWAKGRFTISRTSTTVDLKMTSPTTEDTATYFCARGSSWTGDIWGPGTLVTVSS
VL: DPVLTQTPSSTSAAVGGTVTIKCQASQSISSYLSWYQQKPGQPPKQLIYAASTLASGVPSRFKGSGSGTEYTLTISGVQREDAATYYCLGGYASASYQTAFGGGTKVEIK
notes: as for B7

What was measured:
[1] = target: T1, anti-human Fc (Jackson ImmunoResearch, 109-006-008); assay: ELISA, IgG titrated on coated anti-human Fc; fit printed as IC50
T1 construct: Coated on a control plate to capture the chimeric IgG1 antibodies through their human Fc; also called IgG

[2] = target: T2, recombinant murine twin strep-tagged ROR2 extracellular domain (mouse, UniProt Q9Z138 34-403); assay: ELISA on coated twin-strep mouse ROR2 ECD (FIG. 14B); patent's own reading of the ELISA curves on coated mouse ROR2 (FIG. 14, panel B)
T2 construct: extracellular domain; Made in HEK293T, Streptactin purified; also called mouse ROR2; murine ROR2
T2 sequence (Q9Z138 other isoform, or with tags, fused parts or gaps): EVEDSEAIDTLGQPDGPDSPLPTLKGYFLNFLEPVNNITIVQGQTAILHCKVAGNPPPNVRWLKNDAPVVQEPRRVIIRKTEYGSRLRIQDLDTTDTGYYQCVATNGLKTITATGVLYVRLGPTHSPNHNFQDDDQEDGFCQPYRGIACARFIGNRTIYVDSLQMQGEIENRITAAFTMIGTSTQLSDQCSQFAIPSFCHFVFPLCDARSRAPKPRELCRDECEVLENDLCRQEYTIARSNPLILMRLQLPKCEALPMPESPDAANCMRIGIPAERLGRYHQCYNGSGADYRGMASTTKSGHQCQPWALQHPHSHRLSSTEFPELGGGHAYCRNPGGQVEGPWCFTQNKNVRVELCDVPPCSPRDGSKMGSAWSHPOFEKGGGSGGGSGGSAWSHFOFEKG

[3] = target: T1, anti-human Fc (Jackson ImmunoResearch, …); assay: ELISA, IgG titrated on coated anti-human Fc; fit printed as IC50; remark: listed apart in the source
[4] = target: T3, recombinant human twin strep-tagged ROR2 extracellular domain (human, UniProt Q01974 34-403); assay: ELISA, IgG titrated on coated twin-strep human ROR2 ECD; fit printed as IC50
T3 construct: extracellular domain; Made in HEK293T, Streptactin purified; also called Human ROR2-TwinStrep; human ROR2

[5] = target: T3, recombinant human twin strep-tagged …; assay: as above; remark: listed apart in the source
[6] = target: T4, recombinant cynomolgus twin strep-tagged ROR2 extracellular domain (cynomolgus monkey, UniProt A0A7N9D5U8 34-403); assay: ELISA, IgG titrated on coated twin-strep cynomolgus ROR2 ECD; fit printed as IC50
T4 construct: extracellular domain; Made in HEK293T, Streptactin purified; also called cynomolgus ROR2; cynomolgus ROR2-TwinStrep

[7] = target: T5, full-length human ROR2 on cells (human, UniProt Q01974 34-943); assay: flow cytometry, T47D cells (endogenous hROR2), IgG 100 ng/100 µL, anti-human Fc APC
T5 construct: whole, on cells; the cells are named under assay; In the Western blot it is denatured; also called hROR2; cell surface human ROR2

[8] = target: T6, hROR2-T245 extracellular domain displayed on HEK 293F cells (human, UniProt Q01974 55-394; P09619 513-561); assay: flow cytometry, HEK 293F cells displaying the construct, IgG1 1 µg/mL, APC (binding) against PE (expression); on Vec cells Q2 6.53 and 73.5 in the PE- APC+ quadrant
T6 construct: range 55-394;range 513-561; also called complete ECD

[9] = target: T7, Ig+Fr (human); assay: as above
T7 construct: two-domain fragment;transmembrane segment; also called HA-Ig+Fr

[10] = target: T8, Ig; assay: as above
T8 construct: transmembrane segment; also called HA-Ig

[11] = target: T2, recombinant murine twin strep-tagged …; assay: ELISA, IgG titrated on coated twin-strep mouse ROR2 ECD; fit printed as IC50
[12] = target: T3, recombinant human twin strep-tagged …; assay: SPR, Biacore T200, IgG captured by anti-human Fcγ, ROR2-TwinStrep as analyte, 1:1 Langmuir
[13] = target: T4, recombinant cynomolgus twin …; assay: as above
[14] = target: T9, human CD20 on HEK293 cells (Retrogenix array) (human, UniProt P11836 1-297); assay: Retrogenix cell microarray, identical slides of fixed HEK293 cells, AlexaFluor647 anti-human IgG Fc
T9 construct: whole, on cells
T9 sequence (looked up): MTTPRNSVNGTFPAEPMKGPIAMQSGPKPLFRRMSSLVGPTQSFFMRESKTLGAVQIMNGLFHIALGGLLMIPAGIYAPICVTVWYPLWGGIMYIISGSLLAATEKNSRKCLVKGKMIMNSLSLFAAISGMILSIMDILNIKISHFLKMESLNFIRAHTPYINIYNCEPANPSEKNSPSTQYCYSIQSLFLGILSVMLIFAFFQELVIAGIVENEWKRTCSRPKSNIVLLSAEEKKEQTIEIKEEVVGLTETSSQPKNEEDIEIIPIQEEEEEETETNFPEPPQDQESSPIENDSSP

[15] = target: T10, Ki (human); assay: flow cytometry, HEK 293F cells displaying the construct, IgG1 1 µg/mL, APC (binding) against PE (expression); on Vec cells Q2 1.86
T10 construct: isolated domain;transmembrane segment; also called HA-Ki

[16] = target: T11, Fr (human); assay: as above
T11 construct: isolated domain;transmembrane segment; also called HA-Fr

[17] = target: T6, hROR2-T245 extracellular domain …; assay: as above
[18] = target: Fr+Ki (human); assay: as above
Sequence of Fr+Ki (human) (chain, as listed by the source): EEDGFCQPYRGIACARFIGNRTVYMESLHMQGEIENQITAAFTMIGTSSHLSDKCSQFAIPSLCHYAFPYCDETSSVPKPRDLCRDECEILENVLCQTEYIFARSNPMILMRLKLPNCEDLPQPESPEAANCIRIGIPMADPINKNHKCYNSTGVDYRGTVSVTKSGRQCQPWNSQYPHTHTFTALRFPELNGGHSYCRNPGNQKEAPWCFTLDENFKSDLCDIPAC

[19] = target: T7, Ig+Fr; assay: as above
[20] = target: T8, Ig; assay: as above

| Binder | IC50 [1] [µg/mL] | binding result [2] | IC50 [3] [µg/mL] | IC50 [4] [µg/mL] | IC50 [5] [µg/mL] | IC50 [6] [µg/mL] | also measured |
| --- | --- | --- | --- | --- | --- | --- | --- |
| B1 | 0.04 | no binding (tested: 0.5 µg/mL highest concentration) | 0.0112 | 0.0299 | 0.0407 | 0.044 | – |
| B2 | – | – | – | – | – | – | binding result [7]: binds |
| B3 | – | – | – | – | – | – | cells in quadrant Q2 (PE+ APC+) [8]: 90.6%; cells in quadrant Q2 (PE+ APC+) [9]: 50.7%; cells in quadrant Q2 (PE+ APC+) [10]: 67% |
| B4 | 0.0419 | – | 0.0143 | 0.0244 | 0.0462 | 0.0531 | IC50 [11]: 0.0173 µg/mL |
| B5 | 0.0322 | – | 0.0134 | 0.102 | 0.0055 | 0.0071 | Kd [12]: 52.4 nM; koff [12]: 0.0056 s⁻¹; kon [12]: 107000 M⁻¹ s⁻¹; Kd [13]: 48.6 nM; koff [13]: 0.00527 s⁻¹; kon [13]: 108000 M⁻¹ s⁻¹; IC50 [11]: 0.0606 µg/mL |
| B6 | – | – | – | – | – | – | binding result [14]: no binding (tested: 20 µg/mL) |
| B7 | 0.0336 | no binding (tested: 0.5 µg/mL highest concentration) | 0.0167 | 0.467 | 0.0186 | 0.0046 | Kd [12]: 11.2 nM; koff [12]: 0.000153 s⁻¹; kon [12]: 13700 M⁻¹ s⁻¹; Kd [13]: 5.4 nM; koff [13]: 0.000127 s⁻¹; kon [13]: 23800 M⁻¹ s⁻¹ |
| B8 | – | – | – | – | – | – | cells in quadrant Q2 (PE+ APC+) [15]: 90.2%; cells in quadrant Q2 (PE+ APC+) [16]: 4.05%; cells in quadrant Q2 (PE+ APC+) [17]: 55.9%; cells in quadrant Q2 (PE+ APC+) [18]: 69.7%; cells in quadrant Q2 (PE+ APC+) [19]: 3.9%; cells in quadrant Q2 (PE+ APC+) [20]: 3.22% |
| B9 | 0.0391 | no binding (tested: 0.5 µg/mL highest concentration) | 0.0084 | 1.35 | 0.0168 | 0.019 | – |
